In the supplement of paper PMC11246515:
± gives the standard deviation of the averaged measurements.

Assay: total protein half-life in vivo (active degradation + dilution); higher = more stable protein
[1] = E. coli NCM3722 delta-clpP delta-lon delta-hslV, growth: N-lim chemostat, doubling time 6 h
[2] = E. coli NCM3722 delta-clpP, growth: N-lim chemostat, doubling time 6 h
[3] = E. coli NCM3722 delta-hslV, growth: N-lim chemostat, doubling time 6 h
[4] = E. coli NCM3722 delta-lon, growth: N-lim chemostat, doubling time 6 h
[5] = E. coli NCM3722 delta-smpB, growth: N-lim chemostat, doubling time 6 h
[6] = wild type E. coli NCM3722, growth: C-lim chemostat, doubling time 3 h
[7] = wild type E. coli NCM3722, growth: C-lim chemostat, doubling time 6 h
[8] = wild type E. coli NCM3722, growth: C-lim chemostat, doubling time 12 h
[9] = wild type E. coli NCM3722, growth: N-lim chemostat, doubling time 6 h
[10] = wild type E. coli NCM3722, growth: N-lim chemostat, doubling time 12 h
[11] = wild type E. coli NCM3722, growth: P-lim chemostat, doubling time 6 h
[12] = wild type E. coli NCM3722, growth: P-lim chemostat, doubling time 12 h

Sequence	total protein half-life in vivo [1] [h]	total protein half-life in vivo [2] [h]	total protein half-life in vivo [3] [h]	total protein half-life in vivo [4] [h]	total protein half-life in vivo [5] [h]	total protein half-life in vivo [6] [h]	total protein half-life in vivo [7] [h]	total protein half-life in vivo [8] [h]	total protein half-life in vivo [9] [h]	total protein half-life in vivo [10] [h]	total protein half-life in vivo [11] [h]	total protein half-life in vivo [12] [h]
MHQSGSVSLCRSAISVLVATALYSPIALASTVEYGETVDGVVLEKDIQLVYGTANNTKINPGGEQHIKEFGVSNNTEINGGYQYIEMNGAAEYSVLNDGYQIVQMGGAANQTTLNNGVLQVYGAANDTTIKGGRLIVEKDGGAVFVAIEKGGLLEVKEGGFAFAVDQKAGGAIKTTTRAMEVFGTNRLGQFDIKNGIANNMLLENGGSLRVEENDFAYNTTVDSGGLLEVMDGGTVTGVDKKAGGKLIVSTNALEVSGPNSKGQFSIKDGVSKNYELDDGSGLIVMEDTQAIDTILDKHATMQSLGKDTGTKVQANAVYDLGRSYQNGSITYSSKAISENMVINNGRANVWAGTMVNVSVRGNDGILEVMKPQINYAPAMLVGKVVVSEGASFRTHGAVDTSKADVSLENSVWTIIADITTTNQNTLLNLANLAMSDANVIMMDEPVTRSSVTASAENFITLTTNTLSGNGNFYMRTDMANHQSDQLNVTGQATGDFKIFVTDTGASPAAGDSLTLVTTGGGDAAFTLGNAGGVVDIGTYEYTLLDNGNHSWSLAENRAQITPSTTDVLNMAAAQPLVFDAELDTVRERLGSVKGVSYDTAMWSSAINTRNNVTTDAGAGFEQTLTGLTLGIDSRFSREESSTIRGLIFGYSHSDIGFDRGGKGNIDSYTLGAYAGWEHQNGAYVDGVVKVDRFANTIHGKMSNGATAFGDYNSNGAGAHVESGFRWVDGLWSVRPYLAFTGFTTDGQDYTLSNGMRADVGNTRILRAEAGTAVSYHMDLQNGTTLEPWLKAAVRQEYADSNQVKVNDDGKFNNDVAGTSGVYQAGIRSSFTPTLSGHLSVSYGNGAGVESPWNTQAGVVWTF	5.12	–	–	–	–	–	–	–	–	–	–	–
MHQVVCATTNPAKIQAILQAFHEIFGEGSCHIASVAVESGVPEQPFGSEETRAGARNRVANARRLLPEADFWVAIEAGIDGDSTFSWVVIENASQRGEARSATLPLPAVILEKVREGEALGPVMSRYTGIDEIGRKEGAIGVFTAGKLTRASVYHQAVILALSPFHNAVY	4.71 ± 0.46	3.828 ± 0.038	3.608 ± 0.012	4.01 ± 0.27	3.57 ± 0.16	2.81 ± 0.067	5.02 ± 0.2	8.17 ± 0.45	3.92	5.34 ± 0.057	5.38 ± 0.72	10.9 ± 2
MHRILAEKSVNITELRKNPAKYFIDQPVAVLSNNRPAGYLLSASAFEALMDMLAEQEEKKPIKARFRPSAARLEEITRRAEQYLNDMTDDDFNDFKE	6.12 ± 0.86	3.91	–	–	–	–	–	–	–	–	–	4.58
MHSTEVQAKPLFSWKALGWALLYFWFFSTLLQAIIYISGYSGTNGIRDSLLFSSLWLIPVFLFPKRIKIIAAVIGVVLWAASLAALCYYVIYGQEFSQSVLFVMFETNTNEASEYLSQYFSLKIVLIALAYTAVAVLLWTRLRPVYIPKPWRYVVSFALLYGLILHPIAMNTFIKNKPFEKTLDNLASRMEPAAPWQFLTGYYQYRQQLNSLTKLLNENNALPPLANFKDESGNEPRTLVLVIGESTQRGRMSLYGYPRETTPELDALHKTDPNLTVFNNVVTSRPYTIEILQQALTFANEKNPDLYLTQPSLMNMMKQAGYKTFWITNQQTMTARNTMLTVFSRQTDKQYYMNQQRTQSAREYDTNVLKPFQEVLNDPAPKKLIIVHLLGTHIKYKYRYPENQGKFDGNTDHVPPGLNAEELESYNDYDNANLYNDHVVASLIKDFKAANPNGFLVYFSDHGEEVYDTPPHKTQGRNEDNPTRHMYTIPFLLWTSEKWQATHPRDFSQDVDRKYSLAELIHTWSDLAGLSYDGYDPTRSVVNPQFKETTRWIGNPYKKNALIDYDTLPYGDQVGNQ [P0CB39]	6.57 ± 0.15	7 ± 0.21	–	6.52 ± 1.3	6.49 ± 0.29	3.504 ± 0.028	6.41 ± 0.11	13 ± 0.88	6.03 ± 0.069	13 ± 0.74	6.4 ± 0.18	13.1 ± 0.49
MHVKYLAGIVGAALLMAGCSSSNELSAAGQSVRIVDEQPGAECQLIGTATGKQSNWLSGQHGEEGGSMRGAANDLRNQAAAMGGNVIYGISSPSQGMLSSFVPTDSQIIGQVYKCPN [P0AF70]	6.05	6.18 ± 0.3	6.86	6.39	–	3.19 ± 0.049	5.95 ± 0.4	10.7 ± 0.76	7.12	12.9 ± 0.69	6.01 ± 0.24	11.7 ± 0.94
MHVTLVEINVHEDKVDEFIEVFRQNHLGSVQEEGNLRFDVLQDPEVNSRFYIYEAYKDEDAVAFHKTTPHYKTCVAKLESLMTGPRKKRLFNGLMP	4.55 ± 0.72	2.71	> 8	3 ± 0.2	–	2.49 ± 0.49	3.66 ± 0.24	3.93 ± 0.26	2.69	4.86	–	–
MHYMKWIYPRRLRNQMILMAILMVIVPTLTIGYIVETEGRSAVLSEKEKKLSAVVNLLNQALGDRYDLYIDLPREERIRALNAELAPITENITHAFPGIGAGYYNKMLDAIITYAPSALYQNNVGVTIAADHPGREVMRTNTPLVYSGRQVRGDILNSMLPIERNGEILGYIWANELTEDIRRQAWKMDVRIIIVLTAGLLISLLLIVLFSRRLSANIDIITDGLSTLAQNIPTRLPQLPGEMGQISQSVNNLAQALRETRTLNDLIIENAADGVIAIDRQGDVTTMNPAAEVITGYQRHELVGQPYSMLFDNTQFYSPVLDTLEHGTEHVALEISFPGRDRTIELSVTTSRIHNTHGEMIGALVIFSDLTARKETQRRMAQAERLATLGELMAGVAHEVRNPLTAIRGYVQILRQQTSDPIHQEYLSVVLKEIDSINKVIQQLLEFSRPRHSQWQQVSLNALVEETLVLVQTAGVQARVDFISELDNELSPINADRELLKQVLLNILINAVQAISARGKIRIQTWQYSDSQQAISIEDNGCGIDLSLQKKIFDPFFTTKASGTGLGLALSQRIINAHQGDIRVASLPGYGATFTLILPINPQGNQTV	6.89	–	–	–	–	3.09 ± 0.28	6.53	–	–	–	–	–
MHYQPKQDLLNDRIILVTGASDGIGREAAMTYARYGATVILLGRNEEKLRQVASHINEETGRQPQWFILDLLTCTSENCQQLAQRIAVNYPRLDGVLHNAGLLGDVCPMSEQNPQVWQDVMQVNVNATFMLTQALLPLLLKSDAGSLVFTSSSVGRQGRANWGAYAASKFATEGMMQVLADEYQQRLRVNCINPGGTRTAMRASAFPTEDPQKLKTPADIMPLYLWLMGDDSRRKTGMTFDAQPGRKPGISQ	4.5 ± 0.46	4.29 ± 0.28	3.87 ± 0.11	4.56 ± 0.44	3.62 ± 0.049	2.99 ± 0.043	5.77 ± 0.044	9.39 ± 1.9	3.68 ± 0.25	5.92 ± 0.058	6.22 ± 0.24	11.3 ± 0.24
MIAIADILQAGEKLTAVAPFLAGIQNEEQYTQALELVDHLLLNDPENPLLDLVCAKITAWEESAPEFAEFNAMAQAMPGGIAVIRTLMDQYGLTLSDLPEIGSKSMVSRVLSGKRKLTLEHAKKLATRFGISPALFID	4.71	1.51	–	–	–	–	–	–	–	–	–	1.85
MIALIQRVTRASVTVEGEVTGEIGAGLLVLLGVEKDDDEQKANRLCERVLGYRIFSDAEGKMNLNVQQAGGSVLVVSQFTLAADTERGMRPSFSKGASPDRAEALYDYFVERCRQQEMNTQTGRFAADMQVSLVNDGPVTFWLQV [P0A6M4]	4.67 ± 0.29	3.81 ± 0.19	3.859 ± 0.026	4.26 ± 0.52	4.06 ± 0.17	–	5.48 ± 0.15	10 ± 0.87	3.84 ± 0.29	6.66 ± 0.43	5.52 ± 0.24	11 ± 0.22
MIASKFGIGQQVRHSLLGYLGVVVDIDPVYSLSEPSPDELAVNDELRAAPWYHVVMEDDNGLPVHTYLAEAQLSSELQDEHPEQPSMDELAQTIRKQLQAPRLRN [P0AB20]	3.23 ± 0.48	–	–	1.99 ± 0.27	–	–	–	–	–	–	–	–
MIDDDGYRPNVGIVICNRQGQVMWARRFGQHSWQFPQGGINPGESAEQAMYRELFEEVGLSRKDVRILASTRNWLRYKLPKRLVRWDTKPVCIGQKQKWFLLQLVSGDAEINMQTSSTPEFDGWRWVSYWYPVRQVVSFKRDVYRRVMKEFASVVMSLQENTPKPQNASAYRRKRG [P0A776]	5.67 ± 0.079	5.62 ± 0.48	6.81 ± 1.3	6.4 ± 0.12	5.02 ± 0.73	–	5.48 ± 0.44	9.01 ± 3.2	4.84 ± 0.076	11.9 ± 3.9	–	9.25 ± 0.6
MIDLYFAPTPNGHKITLFLEEAELDYRLIKVDLGKGGQFRPEFLRISPNNKIPAIVDHSPADGGEPLSLFESGAILLYLAEKTGLFLSHETRERAATLQWLFWQVGGLGPMLGQNHHFNHAAPQTIPYAIERYQVETQRLYHVLNKRLENSPWLGGENYSIADIACWPWVNAWTRQRIDLAMYPAVKNWHERIRSRPATGQALLKAQLGDERSDS	–	4.37 ± 1.4	4.61 ± 1.6	4.28 ± 0.48	2.94 ± 1.1	3.27 ± 0.89	4.84 ± 0.4	9.73 ± 0.75	4.02 ± 1.1	6.01 ± 0.55	5.6483 ± 0.0048	11.48 ± 0.07
MIDTTLPLTDIHRHLDGNIRPQTILELGRQYNISLPAQSLETLIPHVQVIANEPDLVSFLTKLDWGVKVLASLDACRRVAFENIEDAARHGLHYVELRFSPGYMAMAHQLPVAGVVEAVIDGVREGCRTFGVQAKLIGIMSRTFGEAACQQELEAFLAHRDQITALDLAGDELGFPGSLFLSHFNRARDAGWHITVHAGEAAGPESIWQAIRELGAERIGHGVKAIEDRALMDFLAEQQIGIESCLTSNIQTSTVAELAAHPLKTFLEHGIRASINTDDPGVQGVDIIHEYTVAAPAAGLSREQIRQAQINGLEMAFLSAEEKRALREKVAAK	5.4 ± 0.46	4.73 ± 0.99	4.41 ± 0.094	5.25 ± 0.55	4.49 ± 0.38	2.88 ± 0.36	–	10.6 ± 0.3	4.68 ± 0.59	7.15 ± 0.088	5.63 ± 0.2	11 ± 0.3
MIDYEVLRFIWWLLVGVLLIGFAVTDGFDMGVGMLTRFLGRNDTERRIMINSIAPHWDGNQVWLITAGGALFAAWPMVYAAAFSGFYVAMILVLASLFFRPVGFDYRSKIEETRWRNMWDWGIFIGSFVPPLVIGVAFGNLLQGVPFNVDEYLRLYYTGNFFQLLNPFGLLAGVVSVGMIITQGATYLQMRTVGELHLRTRATAQVAALVTLVCFALAGVWVMYGIDGYVVKSTMDHYAASNPLNKEVVREAGAWLVNFNNTPILWAIPALGVVLPLLTILTARMDKAAWAFVFSSLTLACIILTAGIAMFPFVMPSSTMMNASLTMWDATSSQLTLNVMTWVAVVLVPIILLYTAWCYWKMFGRITKEDIERNTHSLY [P0ABK2]	> 8	–	6.72	5.91	5.4	–	6.31	–	6.61	12.2 ± 1.9	6.45 ± 0.17	12.9 ± 0.13
MIDYKKNLLFILVFISGFILFTVYSYTAEKMIYNETCTANWVIFNDQGRANLTIDFMYNKKNKTGTVALSGTWQQGNRESKSIRRNIEYTWIENYDTAHLTSKKVNKFEIMDQVDDDRLAQLIPDFYVFPEKSVSYNILKQGKHAFILSIGNRAIMHCAR	–	–	–	–	–	–	–	> 16	–	–	–	–
MIEADRLISAGTTLPEDVADRAIRPKLLEEYVGQPQVRSQMEIFIKAAKLRGDALDHLLIFGPPGLGKTTLANIVANEMGVNLRTTSGPVLEKAGDLAAMLTNLEPHDVLFIDEIHRLSPVVEEVLYPAMEDYQLDIMIGEGPAARSIKIDLPPFTLIGATTRAGSLTSPLRDRFGIVQRLEFYQVPDLQYIVSRSARFMGLEMSDDGALEVARRARGTPRIANRLLRRVRDFAEVKHDGTISADIAAQALDMLNVDAEGFDYMDRKLLLAVIDKFFGGPVGLDNLAAAIGEERETIEDVLEPYLIQQGFLQRTPRGRMATTRAWNHFGITPPEMP [P0A812]	–	3.14 ± 0.2	1.8 ± 0.077	2.7 ± 0.38	1.63 ± 0.079	2.35 ± 0.51	3.53 ± 0.55	5.83 ± 0.95	2.08 ± 0.048	2.46 ± 0.039	3.14 ± 0.27	4.66 ± 0.42
